The values that follow come from patent US6774222, “Molecular computing elements, gates and flip-flops” (The United States of America as represented by the …).

In data set [1] the target is T1, Fis (Factor for Inversion Stimulation) (Escherichia coli, UniProt P0A6R3 P0A6R3:1-98). Briefly: EMSA; double shift; both sites bound simultaneously; up to 2200 nM Fis, 1 nM DNA. Particulars: chain copies: 2 (dimer, stated); label: 5' biotin; self-complementary linear duplex. How it is done: (§1) FIG. 9 illustrates the mobility shift experiments for 11 and 7 base pair overlapping and 23 base pair separated Fis sites. Each lane contains increasing concentrations of Fis protein, beginning with no Fis, Fis diluted 1 to 64, etc. The 1:1 dilution is at 2200 nM Fis. This concentration was chosen intentionally so that with 1 nM DNA per reaction, the protein/DNA ratio is 2-fold higher than that needed to strongly shift DNA containing the 8.9 bit wild-type hin distal Fis site (Bruist et al. (1987) *Genes Dev.* 1: 762–772). Marker lanes (M) contain 10 ng of biotinylated […] hinfI digested DNA standards (Life Technologies, Inc.). Sizes are indicated in bp. The lowest band in most lanes of the figure is single-stranded oligonucleotide DNA. In the "Separated 23" experiment, at high concentrations, Fis proteins are apparently able to capture the single-stranded DNA when it has folded into a hairpin. This produces a faint band near the 100 bp marker.

For data set [2], the target named is T1, Fis (Factor for Inversion Stimulation). Briefly: EMSA; single shift only, no doubly shifted band up to 2200 nM Fis with 1 nM DNA; sites bound mutually exclusively. Particulars: chain copies: 2 (dimer, stated); label: 5' biotin; self-complementary linear duplex. How it is done:
as §1

T1 sequence (P0A6R3 whole entry, one chain of several): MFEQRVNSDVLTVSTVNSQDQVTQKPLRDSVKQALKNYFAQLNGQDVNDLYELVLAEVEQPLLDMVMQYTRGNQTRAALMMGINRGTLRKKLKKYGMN

B1: separated 23 Fis sites (dsDNA)
DNA 1: GGAATTCTTTGCTCAAAATTTGATCAGGATCCTGATCAAATTTTGAGCAAAGAATTCC
DNA 2: B1 DNA 1
As to B1, the binding result in data set [1] is listed as “binds”.

B2: overlap 11 Fis sites (dsDNA)
DNA 1: TATTCTTTGCTCAAAATTTGATCAAATTTTGAGCAAAGAATA
DNA 2: B2 DNA 1
For the molecule B2, the binding result in data set [2] is given as “binds”.

B3: overlap 7 Fis sites (dsDNA)
DNA 1: AGGCTTTTGCTCAAAGTTTAAACTTTGAGCAAAAGCCT
DNA 2: B3 DNA 1
Take B3: the binding result in data set [2] was “binds”.
